In patent publication US20120058906A1 (published 2012):
Each block holds one binder with its values, some of them ahead of it.

Key:
[1] = molecular target: T1, rHuman Notch-1/Fc Chimera, CF (R&D Systems Cat#3647-TK) (human, UniProt P46531 19-526); assay: ECL (MSD multi-spot) titration, Fab at 0.01859 uM; blank spot 1776;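 further: blank spot per well as comparator with Hit at signal to blank ratio of 4 or more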
T1 construct: Bought protein; not shown: Fc of the bought chimera

[2] = molecular target: T2, rHuman IGF-1 sR, CF (R&D Systems Cat#391-GR) (human, UniProt P08069 31-932); assay: as above
T2 construct: Bought soluble receptor; also called insulin-like growth factor-1 soluble receptor; IGF-R1

[3] = molecular target: T3, Recombinant Human DLL4 (R&D Systems Cat#1506-D4/CF) (human, UniProt Q9NR61 27-524); assay: as above
T3 construct: Bought protein; also called delta-like protein 4

[4] = molecular target: T4, rHuman EGF R/Fc Chimera, CF (R&D Systems Cat#344-ER) (human, UniProt P00533 25-645); assay: as above
T4 construct: Bought protein; also called epidermal growth factor receptor; not shown: Fc of the bought chimera

[5] = molecular target: T5, rHuman P-Cadherin/Fc Chimera, CF (R&D Systems Cat#861-PC) (human, UniProt P22223 108-654); assay: as above
T5 construct: Bought protein; not shown: Fc of the bought chimera

[6] = molecular target: T6, rHuman Erythropoietin R/Fc Chimera, CF (R&D Systems Cat#963-ER) (human, UniProt P19235 25-250); assay: as above
T6 construct: Bought protein; also called EPO R/Fc; EPOR; not shown: Fc of the bought chimera
T6 sequence: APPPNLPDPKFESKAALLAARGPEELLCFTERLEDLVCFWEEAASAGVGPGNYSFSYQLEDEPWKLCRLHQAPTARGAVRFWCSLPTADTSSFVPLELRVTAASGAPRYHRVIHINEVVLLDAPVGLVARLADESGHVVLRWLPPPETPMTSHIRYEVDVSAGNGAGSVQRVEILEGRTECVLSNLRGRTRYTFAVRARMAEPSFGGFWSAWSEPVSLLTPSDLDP

[7] = molecular target: T1, rHuman Notch-1/Fc Chimera, CF (R&D …); assay: ECL (MSD multi-spot) titration, Fab at 0.07438 uM; blank spot 2504;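 further: blank spot per well as comparator with Hit at signal to blank ratio of 4 or more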
[8] = molecular target: T2, rHuman IGF-1 sR, CF (R&D Systems …); assay: as above
[9] = molecular target: T3, Recombinant Human DLL4 (R&D Systems …); assay: as above
[10] = molecular target: T4, rHuman EGF R/Fc Chimera, CF (R&D …); assay: as above
[11] = molecular target: T5, rHuman P-Cadherin/Fc Chimera, CF (R&D …); assay: as above
[12] = molecular target: T6, rHuman Erythropoietin R/Fc Chimera, CF …; assay: as above
[13] = molecular target: T1, rHuman Notch-1/Fc Chimera, CF (R&D …); assay: ECL (MSD multi-spot) titration, Fab at 0.2975 uM; blank spot 5019;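 further: blank spot per well as comparator with Hit at signal to blank ratio of 4 or more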
[14] = molecular target: T2, rHuman IGF-1 sR, CF (R&D Systems …); assay: as above
[15] = molecular target: T3, Recombinant Human DLL4 (R&D Systems …); assay: as above
[16] = molecular target: T4, rHuman EGF R/Fc Chimera, CF (R&D …); assay: as above
[17] = molecular target: T5, rHuman P-Cadherin/Fc Chimera, CF (R&D …); assay: as above
[18] = molecular target: T6, rHuman Erythropoietin R/Fc Chimera, CF …; assay: as above
[19] = molecular target: T1, rHuman Notch-1/Fc Chimera, CF (R&D …); assay: ECL (MSD multi-spot) titration, Fab at 1.19 uM; blank spot 24999;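 further: blank spot per well as comparator with Hit at signal to blank ratio of 4 or more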
[20] = molecular target: T2, rHuman IGF-1 sR, CF (R&D Systems …); assay: as above
[21] = molecular target: T3, Recombinant Human DLL4 (R&D Systems …); assay: as above
[22] = molecular target: T4, rHuman EGF R/Fc Chimera, CF (R&D …); assay: as above
[23] = molecular target: T5, rHuman P-Cadherin/Fc Chimera, CF (R&D …); assay: as above
[24] = molecular target: T6, rHuman Erythropoietin R/Fc Chimera, CF …; assay: as above
[25] = molecular target: T7, Recombinant Human DLL4 (R&D Systems, Cat#1506-D4/CF) (human, UniProt Q9NR61 27-529); assay: ECL (MSD) Fab titration; binding affinity estimated from the 50% binding signal
T7 construct: Bought protein; also called rHuman DLL4; delta-like protein 4

ECL signal [1]: 17600 | ECL signal [2]: 3780 | ECL signal [3]: 18900 | ECL signal [4]: 11800 | ECL signal [5]: 11700 | ECL signal [6]: 188000 | ECL signal [7]: 22000 | ECL signal [8]: 5800 | ECL signal [9]: 20700 | ECL signal [10]: 16600 | ECL signal [11]: 14800 | ECL signal [12]: 154000 | ECL signal [13]: 37500 | ECL signal [14]: 17400 | ECL signal [15]: 34700 | ECL signal [16]: 42200 | ECL signal [17]: 26000 | ECL signal [18]: 167000 | ECL signal [19]: 72000 | ECL signal [20]: 35200 | ECL signal [21]: 74900 | ECL signal [22]: 62500 | ECL signal [23]: 69700 | ECL signal [24]: 193000
B1: Fab VH1-46_IGHD6-13*01_IGHJ4*01 & L2_IGKJ1*01 (Fab, V domains shown)
VH: QVQLVQSGAEVKKPGASVKVSCKASGYTFTSYYMHWVRQAPGQGLEWMGIINPSGGSTSYAQKFQGRVTMTRDTSTSTVYMELSSLRSEDTAVYYCAREGYSSSWYDYFDYWGQGTLVTVSS
VL: not shown
notes: also called Fab No. 7

Kd [25]: ≤ 10 nM
B2: Fab VH1-46_IGHD6-6*01_IGHJ1*01 & L6_IGKJ1*01 (Fab, V domains shown)
VH: QVQLVQSGAEVKKPGASVKVSCKASGYTFTSYYMHWVRQAPGQGLEWMGIINPSGGSTSYAQKFQGRVTMTRDTSTSTVYMELSSLRSEDTAVYYCAREEYSSSSAEYFQHWGQGTLVTVSS
VL: not shown
notes: Fab from E. coli; VH joined to CH1 with Flag and His tags (Plasmid A), VL to kappa CL (Plasmid C)
